{
  "source": "patent US20220340673A1",
  "about": "(HARBOUR BIOMED SUZHOU, published 2022)",
  "biological_target": "T1, human BCMA on cells (HEK293T/huBCMA; NCI-H929) (human, UniProt Q02223 1-184)",
  "T1 construct": "whole, on cells; also called human BCMA molecules on NCI-H929 cell line",
  "T1 sequence (looked up)": "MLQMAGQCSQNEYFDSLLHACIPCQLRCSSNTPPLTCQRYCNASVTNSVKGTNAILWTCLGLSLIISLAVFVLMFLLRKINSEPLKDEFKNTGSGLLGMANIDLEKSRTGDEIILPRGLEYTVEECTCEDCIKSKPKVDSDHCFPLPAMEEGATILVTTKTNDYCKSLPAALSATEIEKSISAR",
  "assay": "FACS on HEK293T/huBCMA cells",
  "text": "To study the in vitro binding activity of the BCMA arm of the BCMA×CD3 bispecific antibody, HEK293T cell strain overexpressing human BCMA (HEK293T/huBCMA) and HEK293T cell strain overexpressing cynomolgus monkey BCMA (HEK293T/cynoBCMA) were used for antibody binding experiments at cellular level. Briefly, HEK293T/huBCMA cells and HEK293T/cynoBCMA cells were digested and resuspended with DMEM complete medium. The cell density of the two was adjusted to 1×10⁶ cells/mL, respectively. Cells were inoculated at 100 μL cells/well in a 96 well V-bottom plate (Corning, Cat#: 3894), followed by the addition of test antibodies at 100 μL/well, which is gradient diluted at 3 folds of the concentration with 2 folds of the final concentration. Cells were incubated at 4° C. for 1 hour in the dark. Afterwards, the cells were washed twice with 100 μL/well of pre-cooled PBS, centrifuged at 500 g for 5 min at 4° C., and followed by discarding the supernatant. 100 μL/well of fluorescent secondary antibody (Alexa Fluor 488-conjugated AffiniPure Goat Anti-Human IgG, Fcγ Fragment Specific, Jackson, Cat#: 109-545-06, 1:500 dilution) was added and incubated for 30 min at 4° C. in the dark. […] Finally, the cells were resuspended with 200 μL/well of pre-cooled PBS, and the fluorescence luminescence signal values were read by BD FACS CANTOII. […]",
  "data": [
    {"binder": "BCMA x CD3 bispecific antibody PR003178 (bispecific antibody, human IgG1, lambda, L234A L235A, Three chains: HC1 (anti-CD3 heavy, knob, LALA), LC (anti-CD3 lambda light), HC2 (two tandem anti-BCMA VH of PR001046 joined by (G4S)3, then Fc hole, LALA); also called PRO03178) heavy 1: not shown light: QAVVTQEPSLTVSPGGTVTLTCRSSTGAVTTSNYANWVQQKPGQAPRGLIGGTNKRAPWTPARFSGSLLGDKAALTLLGAQPEDEAEYFCALWYSNLWVFGGGTKLTVLGQPKAAPSVTLFPPSSEELQANKATLVCLISDFYPGAVTVAWKADSSPVKAGVETTTPSKQSNNKYAASSYLSLTPEQWKSHRSYSCQVTHEGSTVEKTVAPTECS heavy 2: EVQLVETGGGLIQPGGSLRLSCAASGFTVSDNYMTWVRQAPGKGLEWVSVIFSGGNTYYADSVKGRFTISRDNAKNTLYLQMNSLRAEDTALYYCARRNYDDTRGTDVFDIWGQGTMVTVSSGGGGSGGGGSGGGGSEVQLVETGGGLIQPGGSLRLSCAASGFTVSDNYMTWVRQAPGKGLEWVSVIFSGGNTYYADSVKGRFTISRDNAKNTLYLQMNSLRAEDTALYYCARRNYDDTRGTDVFDIWGQGTMVTVSSASEPKSSDKTHTCPPCPAPEAAGGPSVFLFPPKPKDTLMISRTPEVTCVVVDVSHEDPEVKFNWYVDGVEVHNAKTKPREEQYNSTYRVVSVLTVLHQDWLNGKEYKCKVSNKALPAPIEKTISKAKGQPREPQVCTLPPSREEMTKNQVSLSCAVKGFYPSDIAVEWESNGQPENNYKTTPPVLDSDGSFFLVSKLTVDKSRWQQGNVFSCSVMHEALHNHYTQKSLSLSPGK", "values": [
      {"measurement": "fold lower EC50 than positive control 2", "value": "~5", "unit": "fold"}
    ]}
  ]
}
